Reference: patent US20240374764A1, “COMBINATION RADIOTHERAPY” (Telix Pharmaceuticals (Innovations) Pty Ltd., priority 2021, published 2024)

What was measured:
SK-RC-52 xenografts [1] = conditions: mouse, in vivo
Protocol: Female BALB/c nude mice with established SK-RC-52 xenografts (approx. 100 mm^3) were used for this study. Mice were split into one of the following 3 groups: • Vehicle control (oral) n=4; • ^177Lu-anti-CAIX antibody only (DOTA-GmAb, as described herein; 162 μCi/6 MBq) n=4; • 50 mg/kg M3814 DNA-PKi orally dosed and ^177Lu-anti-CAIX antibody (162 μCi/6 MBq) n=4.
Animals were treated as follows: • Day −14: injection of 60 female mice with RK-RC-52 metastatic RCC cells in matrigel; • Day 0: ^177Lu-anti-CAIX antibody i.v. administration, single dose once only • Day 1-7: daily oral dosing of vehicle/M3814 @ 50 mg/kg.
SPECT/MRI imaging was conducted at days 3 and 6 to determine biodistribution.

SK-RC-52 xenografts [2] = test: In vivo efficacy in SK-RC-52 metastatic renal cell carcinoma xenograft model; design: species or system Female BALB/c nude mice; conditions: number of mice (% of group, n=4) at conclusion of study; 177Lu antibody 6 MBq single i.v. dose day 0; M3814 50 mg/kg oral daily where combined
From the text: Tumour growth curves were monitored in mice for up to 6 months or ethical limits.

[3] = previous clinical studies, cited from earlier work
DNA-PK = DNA-PK (Homo sapiens, UniProt P78527); conditions: as demonstrated by crystallographic and enzyme kinetics studies; cited from earlier work

In the case of “^177Lu-anti-CAIX antibody: 177Lu-labelled DOTA conjugate of the anti-CAIX antibody GmAb (girentuximab)”, the “SPECT imaging: delivery of radiation to the tumour” value (SK-RC-52 xenografts [1]) was “specifically delivers cytotoxic radiation to the tumour over a prolonged period”, the “Complete Remission” value (SK-RC-52 xenografts [2]) was 1 (25%) and the “Progressive Disease” value (SK-RC-52 xenografts [2]) was 3 (75%).
For “^177Lu-girentuximab: chimeric monoclonal antibody girentuximab (cG250, TLX250) specific for CAIX, radiolabelled with lutetium-177 via a DOTA linker”, the MTD ([3]; single agent) is given as 2405 MBq/m^2 and the “tolerability of follow on dosing at 75% of the previous dose” value [3] is given as “well tolerated”.
For `COc1ccc([C@@H](O)c2cc(-c3ncnc4cc(N5CCOCC5)ccc34)c(F)cc2Cl)nn1` [M3814, (S)-[2-chloro-4-fluoro-5-(7-morpholin-4-yl-quinazolin-4-yl)-phenyl]-(6-methoxypyridazin-3-yl)-methanol], the “inhibition of DNA-PK (mode, potency, selectivity)” value (DNA-PK) is given as “potent and selective ATP-competitive inhibitor of DNA-PK”.
